Experimental data from paper PMC5220088.
Where no end group is shown, it is not given here. [ ]: non-standard residue; d: D form. The star is where a group is joined. EDDnp = O=[N+]([O-])c1ccc(NCCN*)c([N+](=O)[O-])c1; 2Abz = Nc1ccccc1C(=O)O

The binders below were run against protease isolated from Eupenicillium javanicum (metalloprotease, 30 kDa) (Eupenicillium javanicum).

| KM of the hydrolysis of the FRET peptide by the purified protease (Michaelis-Menten, pH 6.0, 45°C) | Binder |
| --- | --- |
| 0.012 mM | [2Abz]KFRSSKQ-EDDnp [Abz-KFRSSKQ-EDDnp] |
| 0.01 mM | [2Abz]VLRSSKQ-EDDnp [Abz-VLRSSKQ-EDDnp] |
| 0.004 mM | [2Abz]KLQSSKQ-EDDnp [Abz-KLQSSKQ-EDDnp] |

Target: protease isolated from Eupenicillium javanicum (metalloprotease, 30 kDa) (Eupenicillium javanicum)
Remark: another data set of the same source

| KM of the hydrolysis of the FRET peptide by the purified protease (Michaelis-Menten, pH 6.0, 45°C) | Binder |
| --- | --- |
| 0.003 mM | [2Abz]KLRSIKQ-EDDnp [Abz-KLRSIKQ-EDDnp] |
| 0.007 mM | [2Abz]KLRYSKQ-EDDnp [Abz-KLRYSKQ-EDDnp] |
| 0.003 mM | [2Abz]KLRSYKQ-EDDnp [Abz-KLRSYKQ-EDDnp] |
